The source of these data is paper PMC7568657, “SppI Forms a Membrane Protein Complex with SppA and Inhibits Its Protease Activity in Bacillus subtilis” (mSphere, 2020).

One data set addresses SppI-SPA (B. subtilis) (UniProt O34424). Put plainly: affinity purification with mass spectrometry; tandem affinity purification of SppI-SPA (calmodulin resin, then anti-FLAG resin) from B. subtilis membranes in 10 mM Tris-Cl pH 7.5, 150 mM NaCl, 1% DDM, 4°C; LC-MS/MS; two independent experiments.
Data set [1] deals with the molecule itself. Put plainly: SEC; gel filtration of affinity-purified proteins on Superdex 200 GL 10/300; apparent sizes against MW markers.

“And” between values parts separate entries of the source, which are not always exact repeats. Equal entries are not always repeated.

With “SppA (from UniProt O34525 1-335) (enzyme)”, in the data set with SppI-SPA (B. subtilis), the stoichiometry N (SppA per SppI (by the PAI values)) was 1 and 2.

B1: 6×His-SppA (enzyme, B. subtilis, UniProt O34525 1-335, looked up)
chain: MNAKRWIALVIALGIFGVSIIVSISMSFFESVKGAQTDLTSLTDESQEKTLENGSPSSKIAVLEVSGTIQDNGDSSSLLGADGYNHRTFLKNLERAKDDKTVKGIVLKVNSPGGGVYESAEIHKKLEEIKKETKKPIYVSMGSMAASGGYYISTAADKIFATPETLTGSLGVIMESVNYSKLADKLGISFETIKSGAHKDIMSPSREMTKEEKNIMQSMVDNSYEGFVDVISKGRGMPKAEVKKIADGRVYDGRQAKKLNLVDELGFYDDTITAMKKDHKDLKNASVISYEESFGLGSLFSMGANKMFKSEIDFLNMREILSQSGSPRMMYLYAK
notes: SppA, membrane protease of Bacillus subtilis, amplified from BSB1 chromosomal DNA; Purified alone it gave at least three bands of 32 to 34 kDa (C-terminal domain partly self-cleaved); purified with SppI the major band was about 36 kDa and still held most of the C terminus; source: E. coli ER2566, purified from the cytoplasmic membrane fraction (1% DDM, Ni-NTA, gel filtration); not shown: 6×His, …
A word on the stoichiometry N: it is a count of units in the complex or per binding partner. Regarding B1, the “stoichiometry N” value in data set [1] was found to be 8.

B2: 6×His-SppA^K199A (enzyme, B. subtilis, UniProt O34525 1-335, looked up)
chain: MNAKRWIALVIALGIFGVSIIVSISMSFFESVKGAQTDLTSLTDESQEKTLENGSPSSKIAVLEVSGTIQDNGDSSSLLGADGYNHRTFLKNLERAKDDKTVKGIVLKVNSPGGGVYESAEIHKKLEEIKKETKKPIYVSMGSMAASGGYYISTAADKIFATPETLTGSLGVIMESVNYSKLADKLGISFETIKSGAHADIMSPSREMTKEEKNIMQSMVDNSYEGFVDVISKGRGMPKAEVKKIADGRVYDGRQAKKLNLVDELGFYDDTITAMKKDHKDLKNASVISYEESFGLGSLFSMGANKMFKSEIDFLNMREILSQSGSPRMMYLYAK
notes: SppA, membrane protease of Bacillus subtilis, with the active-site mutation K199A; band of about 36 kDa; not shown: 6×His, N-terminal, kept
As for B2, the “stoichiometry N” value in data set [1] is 8.

B3: SppI-FLAG (natural protein, B. subtilis, UniProt O34424 1-164, looked up)
chain: MDATYEELERNDIKGPQEAELLTHAYAGFWVRFWAFLLDWLVIWGLNHLLVSPLFTVLDLPKTSGMFTFSAYSVTTLIVYLAYFALMTKYFRQTLGKMVFGLKVVSVKQDSKLTWSTVIFREVVGRYIDKIWILYIVVAFSPTKQGIHDYIADTTVVHEKLYRK
notes: SppI (formerly YteJ), membrane protein of Bacillus subtilis; not shown: FLAG, C-terminal, kept
On to B3, for which the “stoichiometry N” value in data set [1] came to 8.

B4: 6×His-SppI (natural protein, B. subtilis, UniProt O34424 1-164, looked up)
chain: MDATYEELERNDIKGPQEAELLTHAYAGFWVRFWAFLLDWLVIWGLNHLLVSPLFTVLDLPKTSGMFTFSAYSVTTLIVYLAYFALMTKYFRQTLGKMVFGLKVVSVKQDSKLTWSTVIFREVVGRYIDKIWILYIVVAFSPTKQGIHDYIADTTVVHEKLYRK
notes: SppI (formerly YteJ), membrane protein of Bacillus subtilis, amplified from BSB1 chromosomal DNA; source: E. coli ER2566, purified from the membrane fraction (1% DDM, Ni-NTA, gel filtration); not shown: 6×His, N-terminal, kept
Consider B4, for which, in data set [1], the “stoichiometry N” value was 8.
